Data taken from US20130251707A1 (BALIOPHARM, published 2013).
Positions count from the first letter of the chain named. Names may count otherwise. One block for each binder: values may come before it.

What was measured:
mouse TNFR1-Fc = target: T1, mouse TNFR1-Fc (mouse; human, UniProt P25118 30-212); assay: ELISA on coated TNFR1-Fc (100 ng/well)
T1 construct: range 30-212; also called moTNFR1-Fc; not shown: Fc of vector pSecTagL1-Fc (human IgG1 Fc is stated for the human TNFR1-Fc)
T1 sequence (looked up): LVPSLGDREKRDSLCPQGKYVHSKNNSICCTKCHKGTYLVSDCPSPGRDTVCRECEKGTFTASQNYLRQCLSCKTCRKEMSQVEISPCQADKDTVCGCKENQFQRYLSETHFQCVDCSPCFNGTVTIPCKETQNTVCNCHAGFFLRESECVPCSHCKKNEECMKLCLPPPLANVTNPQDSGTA
Procedure: (100 ng/well). Binding was detected by HRP-conjugated anti-molgG (Fc-specific) antibody or anti-human Fab antibody, respectively. Binding of an anti-human Fc antibody (anti-Fc) was included as coating control.

[1] = target: T2, human TNFR1-Fas on transfected mouse embryonic fibroblasts (human, UniProt P19438 30-211; P25445 191-335, limits assumed); assay: flow cytometry, titration on MEF-TNFR1-Fas cells
T2 construct: extracellular domain;domain: intracellular domain; also called MEF-TNFR1-Fas
T2 sequence (looked up): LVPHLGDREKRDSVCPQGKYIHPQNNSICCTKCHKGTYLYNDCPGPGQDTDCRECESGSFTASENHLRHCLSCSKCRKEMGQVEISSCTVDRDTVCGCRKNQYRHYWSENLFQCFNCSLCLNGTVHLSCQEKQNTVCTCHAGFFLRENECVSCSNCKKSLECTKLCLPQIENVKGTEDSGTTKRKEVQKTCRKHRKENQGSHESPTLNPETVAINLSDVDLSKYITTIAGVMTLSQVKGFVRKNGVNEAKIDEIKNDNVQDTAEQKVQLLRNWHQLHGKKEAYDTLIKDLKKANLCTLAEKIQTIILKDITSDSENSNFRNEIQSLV
Procedure: (§1) Binding to TNFR1-Fas or TNFR2-Fas transfected MEF cells was analyzed by flow cytometry. Cells (2×105) were incubated with dilution series of antibodies for 4 h at 4° C. Cells were then washed with PBS and bound antibodies were detected with PE-labeled goat anti-mouse or anti-human antibody. Cells were analyzed by flow cytometry (Cytomics FC 500, Beckmann-Coulter, Krefeld, Germany). Data were evaluated with the program WinMDI, version 2.9, and fitted with GraphPrism software (La Jolla, USA) from 3 independent binding curves.

[2] = target: T3, human TNFR2-Fas on transfected mouse embryonic fibroblasts (human, UniProt P20333 23-257; P25445 191-335, limits assumed); assay: flow cytometry on transfected MEF cells
T3 construct: extracellular domain;domain: intracellular domain; also called MEF-TNFR2-Fas
T3 sequence (looked up): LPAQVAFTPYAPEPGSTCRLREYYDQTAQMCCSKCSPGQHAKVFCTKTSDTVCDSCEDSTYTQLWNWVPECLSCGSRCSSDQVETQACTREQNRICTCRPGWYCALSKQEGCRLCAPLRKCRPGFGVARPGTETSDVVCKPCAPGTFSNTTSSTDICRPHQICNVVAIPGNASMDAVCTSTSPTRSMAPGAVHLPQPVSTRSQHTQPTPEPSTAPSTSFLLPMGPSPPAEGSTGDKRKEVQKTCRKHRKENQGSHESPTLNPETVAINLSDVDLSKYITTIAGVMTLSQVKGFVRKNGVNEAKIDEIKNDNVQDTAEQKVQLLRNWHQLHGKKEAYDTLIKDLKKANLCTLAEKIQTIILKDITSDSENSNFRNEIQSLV
Procedure: as §1

[3] = target: T4, chimeric human/mouse TNFR1-Fc construct 8 (mouse TNFR1 with human CRD1 and sub-domain A1 of CRD2) (human; mouse, UniProt P25118 100-212, limits assumed); assay: ELISA on chimeric TNFR1-Fc, antibody 0.1 nM
T4 construct: The label hl-2A1/m2B2-4 is tied to construct 8 by inference; also called chimeric TNFR1 hl-2A1/m2B2-4; not shown: Fc of vector pSecTagL1-Fc
T4 sequence: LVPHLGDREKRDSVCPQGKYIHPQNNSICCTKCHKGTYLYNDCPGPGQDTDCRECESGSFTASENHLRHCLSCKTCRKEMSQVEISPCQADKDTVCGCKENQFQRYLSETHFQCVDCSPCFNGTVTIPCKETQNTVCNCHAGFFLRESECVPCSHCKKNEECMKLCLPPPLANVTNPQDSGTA
Procedure: (§2) Antibodies (0.1 nM) were analyzed by ELISA for binding to the TNFR1-Fc fusion proteins. […] Cysteine residues are marked with grey boxes and the 2 positions (P23, Q24) analyzed by site-directed mutagenesis are marked by asterisks.

rhesus TNFR1-Fc = target: T5, rhesus TNFR1-Fc (rhesus; human, UniProt A0A1D5QSM0 27-209); assay: quartz crystal microbalance, TNFR1-Fc immobilized
T5 construct: range 27-209; also called rheTNFR1-Fc; not shown: Fc of vector pSecTagL1-Fc (human IgG1 Fc is stated for the human TNFR1-Fc)
T5 sequence: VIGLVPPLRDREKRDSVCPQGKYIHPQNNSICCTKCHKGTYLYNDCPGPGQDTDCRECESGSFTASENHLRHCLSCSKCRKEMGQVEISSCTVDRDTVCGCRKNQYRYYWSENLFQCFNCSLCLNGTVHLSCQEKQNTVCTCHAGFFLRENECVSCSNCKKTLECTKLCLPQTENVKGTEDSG
Procedure: (§3) Affinities of the antibodies were determined by quartz crystal microbalance measurements (QCM; Attana A-100 C-Fast system, Stockholm, Sweden). Binding experiments were performed in PBS 0.005% Tween 20 at a flow rate of 25 to 35 μl/min and temperature was controlled at 20° C. The TNFR1-Fc fusion proteins were chemically immobilized on an Attana carboxyl sensor chip by amine coupling at a concentration of 50 μg/ml according to the manufacturer's protocol resulting in a signal increase (frequency shift) of approximately 200 Hz. Antibodies were analyzed at concentration between 62.5 and 3.9 nM (4 measurements per concentration). The chip was regenerated with 10 mM glycine-HCl, pH 3.0. Buffer injections were performed prior to each sample injection to use as a reference in Attester Evaluation. Data were collected by Attester 3.0 (Version 3.1.1.8, Attana, Stockholm, Sweden) and analyzed by ClampXP (Myszka and Morton 1998). A mass transport model (Myszka 1997) was fitted to the data.

human TNFR1-Fc = target: T6, human TNFR1-Fc (human, UniProt P19438 29-211); assay: quartz crystal microbalance, TNFR1-Fc immobilized
T6 construct: range 29-211; also called huTNFR1-Fc; recombinant human TNFR1-Fc fusion protein; not shown: human IgG1 Fc region (vector pSecTagL1-Fc)
T6 sequence (looked up): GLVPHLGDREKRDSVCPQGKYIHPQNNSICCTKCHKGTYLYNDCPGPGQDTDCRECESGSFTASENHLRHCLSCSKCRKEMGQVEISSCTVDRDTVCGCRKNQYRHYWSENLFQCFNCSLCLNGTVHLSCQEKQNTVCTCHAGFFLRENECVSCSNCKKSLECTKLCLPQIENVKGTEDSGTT
Procedure: as §3

[4] = target: T7, human TNFR1 on Kym-1, HeLa and HT1080 cells (human, UniProt P19438 30-455); assay: cell-based or functional assay
T7 sequence (looked up): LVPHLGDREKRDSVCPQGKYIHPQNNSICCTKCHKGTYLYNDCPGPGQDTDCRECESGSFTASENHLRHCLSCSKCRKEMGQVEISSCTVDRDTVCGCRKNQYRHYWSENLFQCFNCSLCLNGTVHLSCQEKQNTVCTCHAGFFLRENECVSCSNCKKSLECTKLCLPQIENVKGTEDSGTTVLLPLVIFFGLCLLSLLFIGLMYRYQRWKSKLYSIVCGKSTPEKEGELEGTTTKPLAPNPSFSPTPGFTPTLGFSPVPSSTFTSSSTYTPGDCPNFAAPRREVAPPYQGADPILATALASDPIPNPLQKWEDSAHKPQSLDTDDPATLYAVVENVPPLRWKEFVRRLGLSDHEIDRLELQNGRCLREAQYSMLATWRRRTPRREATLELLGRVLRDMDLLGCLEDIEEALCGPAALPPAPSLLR

[5] = target: T8, chimeric human/mouse TNFR1-Fc construct 5 (A1 domain of CRD1 of human TNFR1 exchanged with the mouse sequence) (mouse; human, UniProt P25118 30-58; P19438 59-211, limits assumed); assay: ELISA on chimeric TNFR1-Fc
T8 construct: not shown: Fc of vector pSecTagL1-Fc
T8 sequence (looked up): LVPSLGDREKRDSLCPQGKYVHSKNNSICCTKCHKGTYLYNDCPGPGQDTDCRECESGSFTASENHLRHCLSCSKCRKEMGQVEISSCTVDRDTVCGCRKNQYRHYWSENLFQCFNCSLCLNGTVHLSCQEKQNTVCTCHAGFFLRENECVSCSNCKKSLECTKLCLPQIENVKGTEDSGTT
Procedure: as §2

[6] = target: T9, chimeric human/mouse TNFR1-Fc construct 4 (human CRD1 substituted by the mouse domain) (mouse; human, UniProt P25118 30-82; P19438 83-211, limits assumed); assay: ELISA on chimeric TNFR1-Fc
T9 construct: not shown: Fc of vector pSecTagL1-Fc
T9 sequence (looked up): T8 sequence (looked up) with Y40V, N41S, G45S, Q48R, D51V
Procedure: as §2

[7] = target: T10, chimeric human/mouse TNFR1-Fc construct 3 (human CRD1 and 2 substituted by the mouse domains) (mouse; human, UniProt P25118 30-125; P19438 126-211, limits assumed); assay: ELISA on chimeric TNFR1-Fc
T10 construct: not shown: Fc of vector pSecTagL1-Fc
T10 sequence (looked up): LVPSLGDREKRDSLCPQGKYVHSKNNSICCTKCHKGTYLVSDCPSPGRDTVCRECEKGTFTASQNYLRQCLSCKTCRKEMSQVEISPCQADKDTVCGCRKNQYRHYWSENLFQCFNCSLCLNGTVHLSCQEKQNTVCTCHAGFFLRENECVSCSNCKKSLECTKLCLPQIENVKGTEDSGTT
Procedure: as §2

binding result (mouse TNFR1-Fc): no binding (tested: 5 ug/ml)
EC50 [1]: ~0.1 nM
binding result [2]: no binding
binding result [3]: binds
Kd (rhesus TNFR1-Fc): 0.1 nM
koff (rhesus TNFR1-Fc): 6.7e-05 s⁻¹
kon (rhesus TNFR1-Fc): 690000 M⁻¹ s⁻¹
Kd (human TNFR1-Fc): 0.35 nM
koff (human TNFR1-Fc): 0.00013 s⁻¹
kon (human TNFR1-Fc): 380000 M⁻¹ s⁻¹
IC50, inhibition of TNF-induced IL-6 release from HeLa cells [4]: 60 nM
IC50, inhibition of TNF-induced IL-8 release from HT1080 cells [4]: 60 nM
binding result [5]: no binding (tested: 0.1 nM)
binding result [6]: no binding (tested: 0.1 nM)
binding result [7]: no binding (tested: 0.1 nM)
B1: ATROSAB (antibody, human IgG1, kappa, V domains shown)
VH: QVQLVQSGAEVKKPGSSVKVSCKASGYTFTDFYINWVRQAPGQGLEWIGEIYPYSGHAYYNEKFKARVTITADKSTSTAYMELSSLRSEDTAVYYCARWDFLDYWGQGTTVTVSS
VL: DIVMTQSPLSLPVTPGEPASISCRSSQSLLHSNGNTYLHWYLQKPGQSPQLLIYTVSNRFSGVPDRFSGSGSGTDFTLKISRVEAEDVGVYYCSQSTHVPYTFGGGTKVEIKR
notes: Humanized full-length human IgG1 made in CHO cells; Effector-deficient Fc (IgG1e3: E233P/L234V/L235A/deltaG236, A327G/A330S/P331S), allotype G1m-1,17; also called IZI-06.1 IgG; humanized H398 IgG1

EC50 [1]: ~0.1 nM
Kd (rhesus TNFR1-Fc): 0.49 nM
koff (rhesus TNFR1-Fc): 0.0001 s⁻¹
kon (rhesus TNFR1-Fc): 210000 M⁻¹ s⁻¹
Kd (human TNFR1-Fc): 0.23 nM
koff (human TNFR1-Fc): 7e-05 s⁻¹
kon (human TNFR1-Fc): 310000 M⁻¹ s⁻¹
IC50, inhibition of TNF-induced IL-6 release from HeLa cells [4]: 6 nM
IC50, inhibition of TNF-induced IL-8 release from HT1080 cells [4]: 6 nM
B2: H398 (antibody, V domains shown)
VH: QVQLQESGAELARPGASVKLSCKASGYTFTDFYINWVKQRTGQGLEWIGEIYPYSGHAYYNEKFKAKATLTADKSSSTAFMQLNSLTSEDSAVYFCVRWDFLDYWGQGTTLTVSS
VL: DIVMTQSPLSLPVSLGDQASISCRSSQSLLHSNGNTYLHWYVQKPGQSPKLLIYTVSNRFSGVPDRFSGSGSGTDFTLKISRVEAEDLGVYFCSQSTHVPYTFGGGTKLEIK
